Tested on: Escherichia coli TOP10
Assay: shrunken log2 fold change of peptide-encoding DNA abundance (4.5 h post-induction vs induction); higher = less antimicrobial activity (less host growth inhibition)
Conditions: time post-induction: 4.5 h; library: site-saturation at positions 5, 18, 19, 20
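Note: peptides expressed intracellularly from a pBAD plasmid library in pooled LB shake-flask culture, induced with 0.3% L-arabinose, DNA abundance read by NGS, three biological replicates, DESeq2 with apeglm shrinkage.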

Sequence	shrunken log2 fold change
RRIRYRPPRLPRPRPRPNDYPRP	-0.0969
RRIRCRPPRLPRPRPRPTIFPRP	-0.626
RRIRRRPPRLPRPRPRPNLCPRP	0.00272
RRIRVRPPRLPRPRPRPDRAPRP	-0.0118
RRIRERPPRLPRPRPRPWRIPRP	-0.0301
RRIRDRPPRLPRPRPRPIWVPRP	-0.0618
RRIRKRPPRLPRPRPRPIHAPRP	-0.000921
RRIRSRPPRLPRPRPRPTPSPRP	0.376
RRIRYRPPRLPRPRPRPYWCPRP	-0.0606
RRIRQRPPRLPRPRPRPQHRPRP	-0.0379
RRIRRRPPRLPRPRPRPDTAPRP	-0.0709
RRIRGRPPRLPRPRPRPWMVPRP	0.213
RRIRHRPPRLPRPRPRPANFPRP	-0.0325
RRIRCRPPRLPRPRPRPHPAPRP	0.34
RRIRERPPRLPRPRPRPDLGPRP	-0.0853
RRIRHRPPRLPRPRPRPCVQPRP	-0.131
RRIRFRPPRLPRPRPRPGQWPRP	-0.00218
RRIRSRPPRLPRPRPRPRKSPRP	0.139
RRIRNRPPRLPRPRPRPFNMPRP	-0.149
RRIRKRPPRLPRPRPRPKPCPRP	0.0204
RRIRLRPPRLPRPRPRPDKKPRP	-0.0455
RRIRKRPPRLPRPRPRPDANPRP	-0.0872
RRIRNRPPRLPRPRPRPHPDPRP	-0.15
RRIRNRPPRLPRPRPRPGDIPRP	0.0338
RRIRVRPPRLPRPRPRPCLPPRP	-0.219

Sequence	shrunken log2 fold change
RRIRDRPPRLPRPRPRPKGIPRP	0.0238
RRIRFRPPRLPRPRPRPVQDPRP	-0.209
RRIRARPPRLPRPRPRPRWEPRP	0.431
RRIRMRPPRLPRPRPRPMHWPRP	-0.0799
RRIRSRPPRLPRPRPRPIYLPRP	-0.336
RRIRFRPPRLPRPRPRPIGNPRP	-0.501
RRIRRRPPRLPRPRPRPEYAPRP	0.0407
RRIRVRPPRLPRPRPRPNHAPRP	0.0625
RRIRQRPPRLPRPRPRPNPCPRP	-0.349
RRIRRRPPRLPRPRPRPFSFPRP	-0.0665
RRIRPRPPRLPRPRPRPCHNPRP	0.156
RRIRQRPPRLPRPRPRPLYDPRP	-0.226
RRIRSRPPRLPRPRPRPKCPPRP	-0.118
RRIRSRPPRLPRPRPRPNDAPRP	0.0331
RRIRLRPPRLPRPRPRPMHEPRP	-0.0688
RRIRDRPPRLPRPRPRPSTYPRP	-0.273
RRIRSRPPRLPRPRPRPDHCPRP	-0.0225
RRIRKRPPRLPRPRPRPHIYPRP	-0.175
RRIRWRPPRLPRPRPRPLGCPRP	0.438
RRIRHRPPRLPRPRPRPHITPRP	-0.857
RRIRVRPPRLPRPRPRPEQAPRP	0.358
RRIRGRPPRLPRPRPRPWFDPRP	-0.0883
RRIRQRPPRLPRPRPRPFDFPRP	-0.404
RRIRVRPPRLPRPRPRPTYNPRP	-0.769
RRIRFRPPRLPRPRPRPHAAPRP	0.062

Sequence	shrunken log2 fold change
RRIRVRPPRLPRPRPRPVVQPRP	-0.039
RRIRFRPPRLPRPRPRPVVDPRP	-0.232
RRIRDRPPRLPRPRPRPVLGPRP	0.162
RRIRKRPPRLPRPRPRPVANPRP	0.0525
RRIRARPPRLPRPRPRPYFFPRP	-0.225
RRIRLRPPRLPRPRPRPSNSPRP	-0.564
RRIRLRPPRLPRPRPRPNTDPRP	-0.371
RRIRHRPPRLPRPRPRPCNQPRP	-0.185
RRIRARPPRLPRPRPRPLIWPRP	0.359
RRIRDRPPRLPRPRPRPKTHPRP	0.0785
RRIRFRPPRLPRPRPRPDMHPRP	0.191
RRIRVRPPRLPRPRPRPNPTPRP	-0.325
RRIRARPPRLPRPRPRPAMGPRP	0.505
RRIRTRPPRLPRPRPRPGCRPRP	0.235
RRIRIRPPRLPRPRPRPVDTPRP	-0.282
RRIRVRPPRLPRPRPRPYAKPRP	-0.0931
RRIRCRPPRLPRPRPRPPTAPRP	0.272
RRIRRRPPRLPRPRPRPKGRPRP	0.135
RRIRNRPPRLPRPRPRPDSWPRP	-0.125
RRIRLRPPRLPRPRPRPDNAPRP	0.0803
RRIRTRPPRLPRPRPRPDMDPRP	0.00854
RRIRYRPPRLPRPRPRPYFMPRP	-1.17
RRIRDRPPRLPRPRPRPIDIPRP	-0.0169
RRIRERPPRLPRPRPRPYRRPRP	-0.0227
RRIRWRPPRLPRPRPRPSSQPRP	-0.317

Sequence	shrunken log2 fold change
RRIRLRPPRLPRPRPRPECWPRP	0.587
RRIRRRPPRLPRPRPRPGNLPRP	0.0367
RRIRGRPPRLPRPRPRPEQHPRP	0.66
RRIRPRPPRLPRPRPRPHKAPRP	0.0705
RRIRTRPPRLPRPRPRPSMSPRP	-0.655
RRIRDRPPRLPRPRPRPTHEPRP	1.09
RRIRVRPPRLPRPRPRPLKRPRP	0.0621
RRIRGRPPRLPRPRPRPQPWPRP	0.68
RRIRRRPPRLPRPRPRPWCWPRP	0.123
RRIRERPPRLPRPRPRPAPLPRP	0.324
RRIRSRPPRLPRPRPRPQHEPRP	-0.296
RRIRHRPPRLPRPRPRPWCYPRP	-0.297
RRIRLRPPRLPRPRPRPECGPRP	0.372
RRIRMRPPRLPRPRPRPAKWPRP	0.708
RRIRSRPPRLPRPRPRPVLSPRP	0.0825
RRIRTRPPRLPRPRPRPKWAPRP	0.0541
RRIRRRPPRLPRPRPRPDAKPRP	0.644
RRIRYRPPRLPRPRPRPGFIPRP	2.02
RRIRQRPPRLPRPRPRPHCKPRP	-0.187
RRIRKRPPRLPRPRPRPIQEPRP	0.000523
RRIRDRPPRLPRPRPRPTGTPRP	0.0829
RRIRIRPPRLPRPRPRPKWHPRP	-0.27
RRIRMRPPRLPRPRPRPVGRPRP	0.724
RRIRFRPPRLPRPRPRPATDPRP	-0.0766
RRIRPRPPRLPRPRPRPKPDPRP	0.0452

Sequence	shrunken log2 fold change
RRIRGRPPRLPRPRPRPMFHPRP	0.074
RRIRARPPRLPRPRPRPDIVPRP	0.244
RRIRFRPPRLPRPRPRPNPNPRP	-0.168
RRIRIRPPRLPRPRPRPKQCPRP	-0.178
RRIRIRPPRLPRPRPRPTVVPRP	-0.0277
RRIRARPPRLPRPRPRPREEPRP	0.579
RRIRMRPPRLPRPRPRPINKPRP	-0.375
RRIRWRPPRLPRPRPRPTWCPRP	0.242
RRIRRRPPRLPRPRPRPPHQPRP	1.32
RRIRMRPPRLPRPRPRPTLVPRP	0.171
RRIRMRPPRLPRPRPRPPKHPRP	0.829
RRIRMRPPRLPRPRPRPEYGPRP	0.132
RRIRKRPPRLPRPRPRPPENPRP	1.15
RRIRERPPRLPRPRPRPPHVPRP	-0.362
RRIRQRPPRLPRPRPRPAGQPRP	-0.143
RRIRHRPPRLPRPRPRPMKCPRP	-0.0796
RRIRHRPPRLPRPRPRPVIQPRP	-0.00152
RRIRKRPPRLPRPRPRPFLDPRP	0.0893
RRIRERPPRLPRPRPRPMQKPRP	0.0175
RRIRLRPPRLPRPRPRPPHWPRP	0.38
RRIRLRPPRLPRPRPRPKQRPRP	0.225
RRIRMRPPRLPRPRPRPVIIPRP	-0.331
RRIRDRPPRLPRPRPRPTVNPRP	0.0689
RRIRFRPPRLPRPRPRPNYWPRP	-0.221
RRIRLRPPRLPRPRPRPFVCPRP	-0.0489

Sequence	shrunken log2 fold change
RRIRDRPPRLPRPRPRPDKSPRP	-0.119
RRIRFRPPRLPRPRPRPICWPRP	-0.134
RRIRHRPPRLPRPRPRPEDHPRP	0.0753
RRIRDRPPRLPRPRPRPLMCPRP	0.498
RRIRTRPPRLPRPRPRPPVYPRP	-0.0771
RRIRRRPPRLPRPRPRPRIHPRP	-0.113
RRIRQRPPRLPRPRPRPMSNPRP	0.0758
RRIRFRPPRLPRPRPRPKMKPRP	0.0379
RRIRRRPPRLPRPRPRPKAQPRP	-0.00801
RRIRYRPPRLPRPRPRPNEEPRP	-0.0952
RRIRMRPPRLPRPRPRPPDAPRP	1.53
RRIRIRPPRLPRPRPRPMSFPRP	-0.178
RRIRARPPRLPRPRPRPSGPPRP	0.0223
RRIRKRPPRLPRPRPRPDDTPRP	2.31
RRIRGRPPRLPRPRPRPVKLPRP	-0.0292
RRIRVRPPRLPRPRPRPLARPRP	0.0756
RRIRRRPPRLPRPRPRPRWCPRP	0.0597
RRIRIRPPRLPRPRPRPMHHPRP	-0.4
RRIRSRPPRLPRPRPRPPVVPRP	0.473
RRIRYRPPRLPRPRPRPYPRPRP	-0.097
RRIRSRPPRLPRPRPRPVVSPRP	0.151
RRIRVRPPRLPRPRPRPNFNPRP	-0.143
RRIRIRPPRLPRPRPRPGLFPRP	-0.0275
RRIRERPPRLPRPRPRPGNQPRP	-0.00399
RRIRDRPPRLPRPRPRPLWCPRP	-0.15
